Assay results reported in paper PMC4183432, “Evidence of a Bacterial Receptor for Lysozyme: Binding of Lysozyme to the Anti-σ Factor RsiV Controls Activation of the ECF σ Factor σ^V” (PLoS Genetics, 2014).

Biological target: T1, GST-RsiV^59–285 (B. subtilis, UniProt O05403 59-285)
T1 construct: plasmid pKBW204 (pDEST15); source: E. coli BL21(DE3), purified (Glutathione HiCap Matrix); not shown: GST, N-terminal, kept
T1 sequence (looked up): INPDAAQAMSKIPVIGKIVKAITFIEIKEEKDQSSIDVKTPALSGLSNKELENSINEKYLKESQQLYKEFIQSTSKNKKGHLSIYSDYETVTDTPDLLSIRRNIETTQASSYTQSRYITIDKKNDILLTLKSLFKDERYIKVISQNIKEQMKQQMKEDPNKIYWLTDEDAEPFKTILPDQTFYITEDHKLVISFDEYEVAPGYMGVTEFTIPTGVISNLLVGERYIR
Assay: pull-down; 2 mg purified GST-RsiV^59–285 on a Glutathione HiCap Matrix column in PBS-EW; 2 mg of HEW lysozyme, human lysozyme or mutanolysin applied; washed with PBS-EW, eluted with TNGT; SDS-PAGE
Settings: both partners purified

B1: human lysozyme (enzyme, UniProt P61626 19-148, looked up)
chain: KVFERCELARTLKRLGMDGYRGISLANWMCLAKWESGYNTRATNYNAGDRSTDYGIFQINSRYWCNDGKTPGAVNACHLSCSALLQDNIADAVACAKRVVRDPQGIRAWVAWRNRCQNRDVRQYVQGCGV
notes: Human lysozyme, a C-type lysozyme (58% identity to HEW lysozyme); also called HUM lysozyme
  binding result: binds
